Laboratory results published in the RNAGym collection of RNA variant scans (doi:10.1073/pnas.2313332121).

B1: TPR t1 (parent)
chain: GACCAAUCUGCCCUCAGAGCUCGAGAACAUCUUCGGAUGCAGAGGAGGCAGGCUUCGGUGGCGCGAUAGCGCCAACGUCCUCAACCUCCAAUGCAUCCCACCACAUGAUGAUGCCUGAAGAGCCUUGGUUUUUUG

Variants of: B1
Test: polymerase ribozyme fitness, log enrichment relative to wild type (log ratio); higher = more active; in vitro selection for triplet polymerase activity
Outline: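 Genotype fitness is the logarithm of its enrichment divided by wild-type enrichment, using inverse-variance-weighted averages of replicates. That logarithm is base 2. Enrichment was measured by Illumina sequencing of input and output libraries from one triplicate in vitro selection round, with frozen incubation at −7 °C, on PCR-built, transcribed mutant libraries of each subunit of a heterodimeric triplet polymerase ribozyme, retaining genotypes with ≥10 input reads and ≥1 read per output.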

In order of falling “polymerase ribozyme fitness (log ratio)” value:
1. A121U C123U  2.27
2. C88G C124G  1.77
3. C89G C104U A121U  1.58
4. C85U U112C  1.15
5. G48A G69U C123U  0.885
6. C12U C73U U81G C82G C123A  0.809
7. C12U U14C C72G C82G U112A  0.602
8. A5U A37U U55A C123A  0.562
9. C88U A118U  0.45
10. U7A C8U G61U  0.322
11. C86U G120A  0.277
12. G10U G60C G122A  0.255
13. C64U G120U  0.23
14. G71C U112A U133A  0.204
15. C56U U81C  0.0987
16. C11U C40U G122A  0.00533
17. C56G G77C  -0.126
18. A5U C72A  -0.164
19. U112A G120C  -0.182
20. G48U A111C  -0.214
21. C12G C115U U133A  -0.348
22. C62U C94U  -0.381
23. U9C G122A  -0.428
24. A43U U92G C124U  -0.53
25. A118C C124G  -0.56
26. A74C A90U  -0.572
27. C53U C80U  -0.665
28. U38G C89U  -0.78
29. U55C G58A U92C  -0.821
30. G10U A50C C73A U78G A90G  -0.824
31. C40U G60C  -0.857
32. C56A C101A  -0.979
33. A41G C70U U78C  -0.997
34. A5G U9C U32C C40G G60U  -1.01
35. U59C G113A  -1.03
36. C8G A29U U55G C56A C94U C124A  -1.05
37. C12U C102A  -1.07
38. C56G G127U  -1.1
39. A6G U14G G58A C70U  -1.12
40. G69U A111U  -1.16
41. A2G C64U C89G U112A  -1.2
42. A5U G47A  -1.21
43. G10A G45U  -1.26
44. A5U G36U  -1.3
45. U7G C88U G93C  -1.33
46. C40U A95G  -1.37
47. A6U U14G  -1.38
48. G52A C62A C123A  -1.42
49. G61U C73A U78A  -1.43
50. C13U C70G A83C U112C  -1.45
51. C53G G117A U130C  -1.46
52. C3A G60A  -1.52
53. C20U C56A  -1.52
54. C12A G110A  -1.57
55. A26G G45A G120C  -1.66
56. C13G G48U C53A U59G  -1.72
57. A100U C123G  -1.75
58. C97U C114A  -1.76
59. G61A C89A A90U A91G  -1.77
60. G69U C72G C102U U125G  -1.81
61. C89U U92G  -1.82
62. A6U C15G G61A  -1.82
63. U7G C13A A37C G52A G69C  -1.85
64. G39U G44C C72U  -1.9
65. U7A G61C  -1.93
66. G60A G113U  -1.94
67. A5C A46U  -1.95
68. G42U A50C  -1.99
69. G45U C85U  -2.01
70. G48U A90G U112A  -2.03
71. G93C C101A C104U  -2.05
72. G36U A46C  -2.09
73. C12A G128C  -2.18
74. C3A C40G  -2.2
75. C12U A18U C40U U106C C114G  -2.23
76. C4U G60C A83U A84C C86A  -2.24
77. C8A A18C C56G A95G  -2.26
78. G44A G52U U87A  -2.35
79. C8U C13U A103C C115A A119G  -2.38
80. C15G G77C  -2.39
81. C72U A105U  -2.43
82. G63C A84U G117A  -2.46
83. C12G U59G A90G G113A  -2.53
84. A41G G57A G77U C123A G128C  -2.56
85. G60C G113C  -2.72
86. G35A G120C  -2.79
87. C88A G117U  -2.84
88. G23A G120C  -2.89
89. C8A C11A G51U  -2.89
90. C3A A74C  -2.99
91. C3U G17U C64U  -3.03
92. A43U C53U A75G C88A U92C  -3.05
93. C40A A43U C82U  -3.09
94. C4U A43C U125A  -3.11
95. C4G G48U C70U  -3.27
96. A37U G44A G113C U130A  -3.29
97. A2C C72A C115G  -3.29
98. A43G G47U  -3.37
99. C12A C20A G113U C115U U131A  -3.38
100. G19U C20U C72A U131A  -3.4
101. C8G C13A A18G C53A C88A U125G  -3.4
102. G58U G60U C80U U87A C89U  -3.57
103. G71A U81C C115U  -3.59
104. G45A A105G  -3.69
105. C11A C28G G77U C98U G110U G135U  -3.7
106. U32A C56G  -3.79
107. G61U A108C  -3.81
108. A50U G61U G110A G127A  -3.84
109. U30C G42U  -3.85
110. U9C C28G G52U  -3.99
111. C4A U59C G69U C115U  -3.99
112. A26U U54C U133A  -4
113. C99U U134C  -4.03
114. G17C G61A C82A  -4.03
115. G47U G48U G63U A111G  -4.04
116. U81G C88U  -4.05
117. C53U G107U  -4.06
118. G47U C114G  -4.11
119. C11U A27U G52C G61C  -4.18
120. G65U  -4.27
121. G45U A105C  -4.28
122. U38A C49U G110U  -4.28
123. A5U C11A C102A  -4.33
124. G57A C76A A105C  -4.35
125. C13G A41C A50U U133A  -4.37
126. C28G A111G  -4.41
127. G113U C115A  -4.42
128. G60C C97A  -4.44
129. C40A A50U C88U U96C G120U  -4.53
130. G44U C114A U116G  -4.56
131. C3A A41U C70A A91C U112G U125G G127U  -4.59
132. C72G C86A U87A  -4.6
133. G36U G61C U126C  -4.78
134. C13A C94G C101A  -4.8
135. G69C C86G A91U  -4.84
136. U92A G128U  -4.84
137. U21A C88A G110A  -4.92
138. C8A G19A A50G U54A A103C G120C  -5.02
139. C4G C11U C13U G47U C72G  -5.03
140. G51U C64U G117A U132A  -5.22
141. C11A G61A C104A G110A  -5.34
142. C49U C80G  -5.44
143. U9A A43C C82G A108G C123G U131A  -5.6
144. C20U C28G G45A G52U G69U C114U  -5.61
145. G23A C56U G110C  -5.74
146. G17U C56G G113A  -5.78
147. U14A G17A C20G C115U  -5.9
148. C22G G69C G77U C101G C115U  -5.91
149. U32G A119G  -5.95
150. A26C U92A  -5.95
151. C13U G51A U55A C79G C89A  -5.95
152. C49U G61U C70G U81G C115G C123U U130A  -5.96
153. A27U G63U U96G G127C  -6.08
154. C72G C86G U92A A111G G128U U132C  -6.17
155. C31U G47U  -6.27
156. G25U C56U C72G C123G  -6.31
157. C34U G57A G107A U109A U116G  -6.43
158. U9A G10C C73U C102G C114G C115G  -6.5
159. C53A U54A C62U C80A C114A C124G U125A  -6.53
160. A5C G35U C56U G63A C70U U109A G117C U125G U130A  -6.63
161. A2C G71U G93A U109A G120C  -6.66
162. C28U U59C G61A C123U  -6.95
163. U9G C40A G69A C76U C114A  -6.98
164. A29G A50G C99G A105G C124A  -7.1
165. C31U A50U C53U C72U G93A C124U  -7.15
166. G45U A68G C79G C99U U112A  -7.19
167. G47U C72U U87C C98G U112A  -7.3
